Measured values from US20250084188A1 (CHUNGBUK NATIONAL UNIVERSITY INDUSTRY ACADEMIC COOPERATION …, published 2025).
Positions count from the first letter of the chain named.

B1: F4 (IgG) (antibody, V domains shown)
VH: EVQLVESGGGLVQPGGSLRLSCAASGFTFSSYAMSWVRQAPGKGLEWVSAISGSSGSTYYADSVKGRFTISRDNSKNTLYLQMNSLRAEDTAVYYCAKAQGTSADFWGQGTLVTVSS
VL: DIQMTQSPSSLSASVGDRVTITCRASQSISRWLNWYQQKPGKAPKLLIYAASRLQSGVPSRFSGSGSGTDFTLTISSLQPEDFATYYCQQSYSTPWTFGQGTKVEIK
notes: Converted into the IgG form of human antibodies, expressed in ExpiCHO-S
B2: E7 Fab clone (phage-displayed) (Fab, V domains shown)
VH: EVQLVESGGGLVQPGGSLRLSCAASGFTFSSYAMHWVRQAPGKGLEWVSAISSSGGSIYYADSVKGRFTISRDNSKNTLYLQMNSLRAEDTAVYYCAKQGLSFDIWGQGTLVTVSS
VL: B1 VL with R31N, A51T, T94F, W96Y
B3: F2 (IgG) (antibody, V domains shown)
VH: EVQLVESGGGLAQPGGSLRLSCAASGFTFSSYAMHWVRQAPGKGLEWVSSIKSSGGSKNYADSVKGRFTISRDNSKNTLYLQMNSLRAEDTAVYYCAKGYGASFDFWGQGTLVTVSS
VL: B1 VL with S28D, R31S, S91A, T94F
notes: as for B1
B4: F4 Fab clone (phage-displayed) (Fab, V domains shown)
VH: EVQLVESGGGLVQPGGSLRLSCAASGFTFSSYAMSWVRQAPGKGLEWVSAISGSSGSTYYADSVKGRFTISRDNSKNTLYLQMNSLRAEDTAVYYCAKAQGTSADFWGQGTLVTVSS
VL: B1 VL
B5: H7 (IgG) (antibody, V domains shown)
VH: EVQLVESGGGLVQPGGSLRLSCAASGFTFSSYGMHWVRQAPGKGLEWVSGISSSGGSKYYADSVKGRFTISRDNSKNTLYLQMNSLRAEDTAVYYCAKHGHQQMDFWGQGTLVTVSS
VL: B1 VL with R31S, S91T, T94F
notes: as for B1
B6: E7 (IgG) (antibody, V domains shown)
VH: B2 VH
VL: B1 VL with R31N, A51T, T94F, W96Y
notes: as for B1
B7: C5 (IgG) (antibody, V domains shown)
VH: EVQLVESGGGLVQPGGSLRLSCAASGFTFSSYAMSWVRQAPGKGLEWVSSISSSSGTTHYADSVKGRFTISRDNSKNTLYLQMNSLRAEDTAVYYCAKGGAFDYWGQGTLVTVSS
VL: B1 VL with S28D, R53T, T94F, W96L
notes: as for B1
B8: A7 (IgG) (antibody, V domains shown)
VH: EVQLVESGGGLVQPGGSLRLSCAASGFTFSDYAMSWVRQAPGKGLEWVSGISSSGGTIYYADSVKGRFTISRDNSKNTLYLQMNSLRAEDTAVYYCAKAIGSWADIWGQGTLVTVSS
VL: B1 VL with S28D, R31N, W32Y, R53S, T94F, W96Y
notes: as for B1
B9: H7 Fab clone (phage-displayed) (Fab, V domains shown)
VH: B5 VH
VL: B1 VL with R31S, S91T, T94F
B10: A7 Fab clone (phage-displayed) (Fab, V domains shown)
VH: B8 VH
VL: B1 VL with S28D, R31N, W32Y, R53S, T94F, W96Y
B11: F2 Fab clone (phage-displayed) (Fab, V domains shown)
VH: B3 VH
VL: B1 VL with S28D, R31S, S91A, T94F
B12: 1E12 (IgG) (antibody, V domains shown)
VH: EVQLVESGGGLVQPGGSLRLSCAASGFTFSSYAMHWVRQAPGKGLEWVSAISSSGGTKYYADSVKGRFTISRDNSKNTLYLQMNSLRAEDTAVYYCAKGLQGGAGAFDIWGQGTLVTVSS
VL: B1 VL with R31N, W32Y, A51T, R53T, Q55H, T94F
notes: as for B1
B13: 1E12 Fab clone (phage-displayed) (Fab, V domains shown)
VH: B12 VH
VL: B1 VL with R31N, W32Y, A51T, R53T, Q55H, T94F
B14: C5 Fab clone (phage-displayed) (Fab, V domains shown)
VH: B7 VH
VL: B1 VL with S28D, R53T, T94F, W96L
B15: A5 (IgG) (antibody, V domains shown)
VH: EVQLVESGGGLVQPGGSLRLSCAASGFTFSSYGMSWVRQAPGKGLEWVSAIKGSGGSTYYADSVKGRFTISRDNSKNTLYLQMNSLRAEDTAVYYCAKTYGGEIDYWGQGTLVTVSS
VL: B1 VL with A51T, R53T, T94F
notes: as for B1
B16: A5 Fab clone (phage-displayed) (Fab, V domains shown)
VH: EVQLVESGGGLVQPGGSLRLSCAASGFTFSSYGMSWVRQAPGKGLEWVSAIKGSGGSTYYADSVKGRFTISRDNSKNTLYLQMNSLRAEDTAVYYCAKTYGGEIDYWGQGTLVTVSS
VL: B1 VL with A51T, R53T, T94F
B17: H1 (IgG) (antibody, V domains shown)
VH: B8 VH with D31S, G50A, S52R, I58T, A99S, I100Q, G101S, S102T, W103V, I106Y
VL: B1 VL with R31N, A51T, T94F, W96L
notes: as for B1
B18: H1 Fab clone (phage-displayed) (Fab, V domains shown)
VH: B8 VH with D31S, G50A, S52R, I58T, A99S, I100Q, G101S, S102T, W103V, I106Y
VL: B1 VL with R31N, A51T, T94F, W96L
B19: D2 Fab clone (phage-displayed) (Fab, V domains shown)
VH: B8 VH with D31S, S35H, G50A, G55S, A99D, I100F, S102A, W103V, A104F, I106Y
VL: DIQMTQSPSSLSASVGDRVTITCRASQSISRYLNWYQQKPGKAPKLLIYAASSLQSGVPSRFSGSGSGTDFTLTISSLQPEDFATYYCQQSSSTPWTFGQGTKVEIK
B20: D2 (IgG) (antibody, V domains shown)
VH: B8 VH with D31S, S35H, G50A, G55S, A99D, I100F, S102A, W103V, A104F, I106Y
VL: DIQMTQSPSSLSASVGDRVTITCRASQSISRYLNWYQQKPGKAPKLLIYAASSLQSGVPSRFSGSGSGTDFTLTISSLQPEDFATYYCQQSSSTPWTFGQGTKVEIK
notes: as for B1

Experiments:
[1] = target: T1, human chitinase-3-like protein 1 (hCHI3L1) (human, UniProt P36222 22-383); test: ELISA, purified IgG on CHI3L1 antigen protein
T1 construct: Antigen used for phage display panning and ELISA; also called YKL-40; CHI3L1 antigen protein

[2] = target: T1, human chitinase-3-like protein 1 …; test: monoclonal phage ELISA, phage-displayed Fab on CHI3L1

T1 sequence (P36222 22-383 limits assumed): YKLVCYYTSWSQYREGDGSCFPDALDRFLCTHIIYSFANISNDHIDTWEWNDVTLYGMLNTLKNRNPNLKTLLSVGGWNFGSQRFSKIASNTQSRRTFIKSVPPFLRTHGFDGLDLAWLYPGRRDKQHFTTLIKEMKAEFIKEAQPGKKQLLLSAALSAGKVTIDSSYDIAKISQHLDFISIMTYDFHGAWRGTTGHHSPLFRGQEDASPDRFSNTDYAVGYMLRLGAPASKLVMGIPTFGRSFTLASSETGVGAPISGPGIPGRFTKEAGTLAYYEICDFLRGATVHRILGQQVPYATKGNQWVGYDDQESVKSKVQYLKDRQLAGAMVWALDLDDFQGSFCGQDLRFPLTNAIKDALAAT

Binder	binding result [1]	binding result [2]
B1	binds	
B2		binds
B3	binds	
B4		binds
B5	binds	
B6	binds	
B7	binds	
B8	binds	
B9		binds
B10		binds
B11		binds
B12	binds	
B13		binds
B14		binds
B15	binds	
B16		binds
B17	binds	
B18		binds
B19		binds
B20	binds	
